Data: patent US20080188000

Columns and labels:
[1] = system: ZFN 9666 (GR exon 3 four-finger ZFP-FokI) (synthetic); assay: cell_activity; conditions: paired with 9674; Ad5/F35 moi 100, CD8+ T-cells after dexamethasone selection; also Cel I cleavage in K562 (FIG. 3A)
[2] = system: ZFN 9674 (GR exon 3 four-finger ZFP-FokI) (synthetic); assay: cell_activity; conditions: paired with 9666; Ad5/F35 moi 100, CD8+ T-cells after dexamethasone selection; also Cel I cleavage in K562 (FIG. 3A)

Sequence | activity (% GR alleles mutated) [1] | activity (% GR alleles mutated) [2]
CAACAGGACCAC (double strand) [GR exon 3 sense target (nt 1370-1381)] | 70 | 
GTTGAGGAGCTG (double strand) [GR exon 3 antisense target (nt 1353-1364)] |  | 70
